This passage reports fold of vitronectin in the elution fraction against VTN rs704: C results from article PMC9179922.

The test concerns the target Strep-tagged recombinant plasminogen activator inhibitor 1 (PAI-1) (human) (UniProt P05121). Put plainly: pull-down; affinity chromatography: purified Strep-tagged PAI-1 (75 µL, 100 µg/mL) immobilised on Strep-Tactin Sepharose gravity flow columns; 2.0 mL medium with untagged vitronectin loaded and incubated 1 h; six washes with Buffer W, elution with Buffer E; Western blot with densitometry.
Chain of UniProt P05121 (P05121 24-402): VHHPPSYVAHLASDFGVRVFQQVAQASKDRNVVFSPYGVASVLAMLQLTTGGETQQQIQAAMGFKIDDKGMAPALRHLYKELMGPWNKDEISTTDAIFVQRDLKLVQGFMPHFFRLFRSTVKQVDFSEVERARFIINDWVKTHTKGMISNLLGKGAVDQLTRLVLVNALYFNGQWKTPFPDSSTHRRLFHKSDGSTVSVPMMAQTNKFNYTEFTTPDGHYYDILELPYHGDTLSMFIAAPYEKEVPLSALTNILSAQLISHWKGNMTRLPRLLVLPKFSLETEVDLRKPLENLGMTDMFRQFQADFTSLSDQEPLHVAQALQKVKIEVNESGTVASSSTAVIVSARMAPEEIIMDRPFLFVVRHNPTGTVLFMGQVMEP

On to “untagged vitronectin isoform VTN_rs704: T (AMD risk-associated, Met400) (natural protein)”, for which the fold of vitronectin in the elution fraction against VTN rs704: C was 2.28 fold.
